{"source": "paper PMC12102759", "about": "(2025)", "parents": {"B1": {"name": "NOTCH4 peptide 1606-1621 (Neurogenic locus notch homolog protein 4), 16-mer library wild type / NSP9 (ORF1ab Nsp9, residues 4141-4253) (parent complex)", "chain 1": "QGAWLGAPEPWEPLLD", "chain 2": "NNELSPVALRQMSCAAGTTQTACTDDNALAYYNTTKGGRFVLALLSDLQDLKWARFPKSDGTGTIYTELEPPCRFVTDTPKGPKVKYLYFIKGLNNLNRGMVLGSLAATVRLQ"}, "B2": {"name": "ICA1L peptide 451-466 (Islet cell autoantigen 1-like protein), 16-mer library wild type / NSP16 (ORF1ab Nsp16, residues 6799-7088) (parent complex)", "chain 1": "QDMSAWFNLFADLDPL", "chain 2": "SSQAWQPGVAMPNLYKMQRMLLEKCDLQNYGDSATLPKGIMMNVAKYTQLCQYLNTLTLAVPYNMRVIHFGAGSDKGVAPGTAVLRQWLPTGTLLVDSDLNDFVSDADSTLIGDCATVHTANKWDLIISDMYDPKTKNVTKENDSKEGFFTYICGFIQQKLALGGSVAIKITEHSWNADLYKLMGHFAWWTAFVTNVNASSSEAFLIGCNYLGKPREQIDGYVMHANYIFWRNTNPIQLSSYSLFDMSKFPLKLRGTAVMSLKEGQINDMILSLLSKGRLIIRENNRVVI"}}}
{"variants_of": "B1", "assay": "bait immobilised on MaxiSorp plates (10 µg), library pre-cleared on GST, 2 h binding at 4 °C, five washes; one round per day, days 1-4; value from days 2 and 3"}
{"variant": "chain 1 FGAWLGAPEPWEPLLD", "note": "[chain 1 Q1F]", "screen value": "0.000338 average fractional NGS count over selection days 2 and 3 (reads of this peptide / all reads for the bait, averaged over …"}
{"variant": "chain 1 NGAWLGAPEPWEPLLD", "note": "[chain 1 Q1N]", "screen value": "0.00294 average fractional NGS count over selection days 2 and 3 (reads of this peptide / all reads for the bait, averaged over …"}
{"variant": "chain 1 DGAWLGAPEPWEPLLD", "note": "[chain 1 Q1D]", "screen value": "0.000709 average fractional NGS count over selection days 2 and 3 (reads of this peptide / all reads for the bait, averaged over …"}
{"variant": "chain 1 MGAWLGAPEPWEPLLD", "note": "[chain 1 Q1M]", "screen value": "0.00503 average fractional NGS count over selection days 2 and 3 (reads of this peptide / all reads for the bait, averaged over …"}
{"variant": "chain 1 WGAWLGAPEPWEPLLD", "note": "[chain 1 Q1W]", "screen value": "0.000692 average fractional NGS count over selection days 2 and 3 (reads of this peptide / all reads for the bait, averaged over …"}
{"variant": "chain 1 QGAWLDAPEPWEPLLD", "note": "[chain 1 G6D]", "screen value": "0.000544 average fractional NGS count over selection days 2 and 3 (reads of this peptide / all reads for the bait, averaged over …"}
{"variant": "chain 1 QGAWLGAPEPWEPLMD", "note": "[chain 1 L15M]", "screen value": "0.000609 average fractional NGS count over selection days 2 and 3 (reads of this peptide / all reads for the bait, averaged over …"}
{"variant": "chain 1 QGAWLGAPEPWEPLKD", "note": "[chain 1 L15K]", "screen value": "0.00133 average fractional NGS count over selection days 2 and 3 (reads of this peptide / all reads for the bait, averaged over …"}
{"variant": "chain 1 QGAWLGAPEPWEPLVD", "note": "[chain 1 L15V]", "screen value": "0.00299 average fractional NGS count over selection days 2 and 3 (reads of this peptide / all reads for the bait, averaged over …"}
{"variant": "chain 1 QGAWLGAPEPWEPLSD", "note": "[chain 1 L15S]", "screen value": "0.00194 average fractional NGS count over selection days 2 and 3 (reads of this peptide / all reads for the bait, averaged over …"}
{"variant": "chain 1 QGAWLGAPEPWEPLTD", "note": "[chain 1 L15T]", "screen value": "0.00153 average fractional NGS count over selection days 2 and 3 (reads of this peptide / all reads for the bait, averaged over …"}
{"variant": "chain 1 QGAWLGAPEPWEPLHD", "note": "[chain 1 L15H]", "screen value": "0.00012 average fractional NGS count over selection days 2 and 3 (reads of this peptide / all reads for the bait, averaged over …"}
{"variant": "chain 1 QGAWLGAPEPWEPLED", "note": "[chain 1 L15E]", "screen value": "0.00221 average fractional NGS count over selection days 2 and 3 (reads of this peptide / all reads for the bait, averaged over …"}
{"variant": "chain 1 QGAWLGAPEPWEPLND", "note": "[chain 1 L15N]", "screen value": "0.00024 average fractional NGS count over selection days 2 and 3 (reads of this peptide / all reads for the bait, averaged over …"}
{"variant": "chain 1 QGAWLGAPEPWEPLAD", "note": "[chain 1 L15A]", "screen value": "0.00794 average fractional NGS count over selection days 2 and 3 (reads of this peptide / all reads for the bait, averaged over …"}
{"variant": "chain 1 QGAWLGAYEPWEPLLD", "note": "[chain 1 P8Y]", "screen value": "0.000389 average fractional NGS count over selection days 2 and 3 (reads of this peptide / all reads for the bait, averaged over …"}
{"variant": "chain 1 QGAWLGATEPWEPLLD", "note": "[chain 1 P8T]", "screen value": "0.001 average fractional NGS count over selection days 2 and 3 (reads of this peptide / all reads for the bait, averaged over …"}
{"variant": "chain 1 QGAWLGAGEPWEPLLD", "note": "[chain 1 P8G]", "screen value": "0.000266 average fractional NGS count over selection days 2 and 3 (reads of this peptide / all reads for the bait, averaged over …"}
{"variant": "chain 1 QGAWLGADEPWEPLLD", "note": "[chain 1 P8D]", "screen value": "0.000161 average fractional NGS count over selection days 2 and 3 (reads of this peptide / all reads for the bait, averaged over …"}
{"variant": "chain 1 QGAWLGAWEPWEPLLD", "note": "[chain 1 P8W]", "screen value": "0.000478 average fractional NGS count over selection days 2 and 3 (reads of this peptide / all reads for the bait, averaged over …"}
{"variant": "chain 1 QGAWLGAAEPWEPLLD", "note": "[chain 1 P8A]", "screen value": "0.000677 average fractional NGS count over selection days 2 and 3 (reads of this peptide / all reads for the bait, averaged over …"}
{"variant": "chain 1 QGAWLGANEPWEPLLD", "note": "[chain 1 P8N]", "screen value": "0.000215 average fractional NGS count over selection days 2 and 3 (reads of this peptide / all reads for the bait, averaged over …"}
{"variant": "chain 1 QGAWLGAQEPWEPLLD", "note": "[chain 1 P8Q]", "screen value": "0.000198 average fractional NGS count over selection days 2 and 3 (reads of this peptide / all reads for the bait, averaged over …"}
{"variant": "chain 1 QGAWLGAREPWEPLLD", "note": "[chain 1 P8R]", "screen value": "8.2e-05 average fractional NGS count over selection days 2 and 3 (reads of this peptide / all reads for the bait, averaged over …"}
{"variant": "chain 1 QGAWLGALEPWEPLLD", "note": "[chain 1 P8L]", "screen value": "0.000953 average fractional NGS count over selection days 2 and 3 (reads of this peptide / all reads for the bait, averaged over …"}
{"variant": "chain 1 QGAWLGAHEPWEPLLD", "note": "[chain 1 P8H]", "screen value": "0.00106 average fractional NGS count over selection days 2 and 3 (reads of this peptide / all reads for the bait, averaged over …"}
{"variants_of": "B2", "assay": "bait immobilised on MaxiSorp plates (10 µg), library pre-cleared on GST, 2 h binding at 4 °C, five washes; one round per day, days 1-4; value from days 2 and 3"}
{"variant": "chain 1 QDMSAWFNLFADLPPL", "note": "[chain 1 D14P]", "screen value": "0.000203 average fractional NGS count over selection days 2 and 3 (reads of this peptide / all reads for the bait, averaged over …"}
{"variant": "chain 1 QDMSAWFNLFADLEPL", "note": "[chain 1 D14E]", "screen value": "0.00108 average fractional NGS count over selection days 2 and 3 (reads of this peptide / all reads for the bait, averaged over …"}
{"variant": "chain 1 QDMSAWFNLFADFDPL", "note": "[chain 1 L13F]", "screen value": "8.42e-05 average fractional NGS count over selection days 2 and 3 (reads of this peptide / all reads for the bait, averaged over …"}
{"variant": "chain 1 QDMSAWFNLFADMDPL", "note": "[chain 1 L13M]", "screen value": "0.00451 average fractional NGS count over selection days 2 and 3 (reads of this peptide / all reads for the bait, averaged over …"}
{"variant": "chain 1 QDMSAWFNLFADWDPL", "note": "[chain 1 L13W]", "screen value": "0.0001 average fractional NGS count over selection days 2 and 3 (reads of this peptide / all reads for the bait, averaged over …"}
{"variant": "chain 1 QDMSAWFNMFADLDPL", "note": "[chain 1 L9M]", "screen value": "0.111 average fractional NGS count over selection days 2 and 3 (reads of this peptide / all reads for the bait, averaged over …"}
{"variant": "chain 1 QDMSAWFNLFADLDNL", "note": "[chain 1 P15N]", "screen value": "0.000142 average fractional NGS count over selection days 2 and 3 (reads of this peptide / all reads for the bait, averaged over …"}
{"variant": "chain 1 QDMSAWFNLFADLDGL", "note": "[chain 1 P15G]", "screen value": "0.000662 average fractional NGS count over selection days 2 and 3 (reads of this peptide / all reads for the bait, averaged over …"}
{"variant": "chain 1 QDMSAWFNLFADLDTL", "note": "[chain 1 P15T]", "screen value": "0.00148 average fractional NGS count over selection days 2 and 3 (reads of this peptide / all reads for the bait, averaged over …"}
{"variant": "chain 1 QDMSAWFNLFADLDQL", "note": "[chain 1 P15Q]", "screen value": "0.000173 average fractional NGS count over selection days 2 and 3 (reads of this peptide / all reads for the bait, averaged over …"}
{"variant": "chain 1 QDMSAWFNLFADLDVL", "note": "[chain 1 P15V]", "screen value": "0.000993 average fractional NGS count over selection days 2 and 3 (reads of this peptide / all reads for the bait, averaged over …"}
{"variant": "chain 1 QDMSAWFNLFGDLDPL", "note": "[chain 1 A11G]", "screen value": "9.42e-05 average fractional NGS count over selection days 2 and 3 (reads of this peptide / all reads for the bait, averaged over …"}
{"variant": "chain 1 QSMSAWFNLFADLDPL", "note": "[chain 1 D2S]", "screen value": "0.000218 average fractional NGS count over selection days 2 and 3 (reads of this peptide / all reads for the bait, averaged over …"}
{"variant": "chain 1 QDMSTWFNLFADLDPL", "note": "[chain 1 A5T]", "screen value": "0.00049 average fractional NGS count over selection days 2 and 3 (reads of this peptide / all reads for the bait, averaged over …"}
{"variant": "chain 1 QDMSAWFTLFADLDPL", "note": "[chain 1 N8T]", "screen value": "0.000466 average fractional NGS count over selection days 2 and 3 (reads of this peptide / all reads for the bait, averaged over …"}
{"variant": "chain 1 QDMSAWFGLFADLDPL", "note": "[chain 1 N8G]", "screen value": "0.000503 average fractional NGS count over selection days 2 and 3 (reads of this peptide / all reads for the bait, averaged over …"}
{"variant": "chain 1 QDMSAWFHLFADLDPL", "note": "[chain 1 N8H]", "screen value": "0.00331 average fractional NGS count over selection days 2 and 3 (reads of this peptide / all reads for the bait, averaged over …"}
{"variant": "chain 1 QDMTAWFNLFADLDPL", "note": "[chain 1 S4T]", "screen value": "0.00139 average fractional NGS count over selection days 2 and 3 (reads of this peptide / all reads for the bait, averaged over …"}
{"variant": "chain 1 QDMSAWFNLFAWLDPL", "note": "[chain 1 D12W]", "screen value": "0.00015 average fractional NGS count over selection days 2 and 3 (reads of this peptide / all reads for the bait, averaged over …"}
{"variant": "chain 1 QDMSAWFNLFAHLDPL", "note": "[chain 1 D12H]", "screen value": "0.0543 average fractional NGS count over selection days 2 and 3 (reads of this peptide / all reads for the bait, averaged over …"}
{"variant": "chain 1 QDMSAWFNLFAYLDPL", "note": "[chain 1 D12Y]", "screen value": "0.000481 average fractional NGS count over selection days 2 and 3 (reads of this peptide / all reads for the bait, averaged over …"}
{"variant": "chain 1 QDMSAWFNLFADLDPT", "note": "[chain 1 L16T]", "screen value": "0.000115 average fractional NGS count over selection days 2 and 3 (reads of this peptide / all reads for the bait, averaged over …"}
{"variant": "chain 1 QDMSAWFNLFADLDPW", "note": "[chain 1 L16W]", "screen value": "0.000423 average fractional NGS count over selection days 2 and 3 (reads of this peptide / all reads for the bait, averaged over …"}
{"variant": "chain 1 QDMSAWFNLFADLDPV", "note": "[chain 1 L16V]", "screen value": "0.000224 average fractional NGS count over selection days 2 and 3 (reads of this peptide / all reads for the bait, averaged over …"}
{"variant": "chain 1 QDMSAWFNLFADLDPM", "note": "[chain 1 L16M]", "screen value": "0.0149 average fractional NGS count over selection days 2 and 3 (reads of this peptide / all reads for the bait, averaged over …"}
{"variant": "chain 1 QDMSAWFNLFADLDPY", "note": "[chain 1 L16Y]", "screen value": "0.00657 average fractional NGS count over selection days 2 and 3 (reads of this peptide / all reads for the bait, averaged over …"}
{"variant": "chain 1 QDMSAWFNLFADLDPR", "note": "[chain 1 L16R]", "screen value": "0.000401 average fractional NGS count over selection days 2 and 3 (reads of this peptide / all reads for the bait, averaged over …"}
{"variant": "chain 1 QDMSAWLNLFADLDPL", "note": "[chain 1 F7L]", "screen value": "0.000815 average fractional NGS count over selection days 2 and 3 (reads of this peptide / all reads for the bait, averaged over …"}
{"variant": "chain 1 QDMSAWWNLFADLDPL", "note": "[chain 1 F7W]", "screen value": "0.000183 average fractional NGS count over selection days 2 and 3 (reads of this peptide / all reads for the bait, averaged over …"}
{"variant": "chain 1 QDISAWFNLFADLDPL", "note": "[chain 1 M3I]", "screen value": "0.00221 average fractional NGS count over selection days 2 and 3 (reads of this peptide / all reads for the bait, averaged over …"}
